Here are results for 2 molecules from article PMC9114768 (Frontiers in Immunology, 2022).

Conditions in all cases: both partners purified
Test [1] has as its target T1, C-terminal Fc-tagged human ACE2 recombinant protein (Homo sapiens, UniProt Q9BYF1).
T1 construct: also called ACE2-hFc; recombinant ACE2-hFc; source: CHO cells, purified (Leadgene Biomedical Cat. No. 63333); not shown: Fc (human, hFc), C-terminal, kept
Description: SPR; Biacore T200; […]; mAb 1024 nM to 8 nM; 30 μL/min, 120 s association, 360 s dissociation; 25°C; 1:1 binding model.

Test [2] addresses T2, S1-RBD peptide 13 (SARS-CoV-2 (YP_009724390)).
T2 construct: source: synthetic peptide (Leadgene Biomedical)
T2 chain: PFERDISTEIYQAGS
Description: ELISA. On the technique in general: ELISA stands for enzyme-linked immunosorbent assay.

Test [3] has as its target His-tagged SARS-CoV-2 S1-RBD recombinant protein, wild type (SARS-CoV-2 (YP_009724390), UniProt P0DTC2). Description: SPR; Biacore T200; […]; mAb 256 nM to 8 nM; 30 μL/min, 120 s association, 360 s dissociation; 25°C; 1:1 binding model. (SPR reads the build-up and loss of mass on a sensor chip optically.)

T1 sequence (Q9BYF1 18-740): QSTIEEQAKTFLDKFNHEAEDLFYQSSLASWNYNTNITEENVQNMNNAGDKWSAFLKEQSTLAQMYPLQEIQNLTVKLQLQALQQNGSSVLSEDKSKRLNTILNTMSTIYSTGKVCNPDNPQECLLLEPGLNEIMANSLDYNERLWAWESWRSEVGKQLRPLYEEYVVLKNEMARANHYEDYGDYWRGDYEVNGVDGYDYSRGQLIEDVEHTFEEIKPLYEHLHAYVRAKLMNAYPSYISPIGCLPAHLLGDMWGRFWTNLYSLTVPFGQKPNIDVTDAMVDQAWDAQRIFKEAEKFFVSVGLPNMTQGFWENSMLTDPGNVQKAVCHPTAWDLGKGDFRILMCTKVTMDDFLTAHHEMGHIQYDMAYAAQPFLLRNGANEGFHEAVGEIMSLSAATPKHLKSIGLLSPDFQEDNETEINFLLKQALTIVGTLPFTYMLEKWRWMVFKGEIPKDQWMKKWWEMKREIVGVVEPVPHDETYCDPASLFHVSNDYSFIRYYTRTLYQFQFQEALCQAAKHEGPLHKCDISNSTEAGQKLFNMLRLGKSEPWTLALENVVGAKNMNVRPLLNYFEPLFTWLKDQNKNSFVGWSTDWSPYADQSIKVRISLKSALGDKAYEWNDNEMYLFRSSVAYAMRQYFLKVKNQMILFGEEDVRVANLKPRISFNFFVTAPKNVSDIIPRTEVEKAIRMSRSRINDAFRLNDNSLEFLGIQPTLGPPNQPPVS

B1: monoclonal antibody 127 (antibody, V domains shown)
VH: QVQLQQPGAELVKPGASVKLSCKASGYTFTSYWMHWVKQRPGQGLEWIGEINPSNGRKNYNEKFKSKATLTVDKSSSTAYMQLSSLTSEDSAVYYCVRGDYGSSYYWYFDVWGAGTTVTVSS
VL: not shown
For orientation: Kd means the equilibrium constant for the complex coming apart. As to B1, the Kd stood at 16.1 nM in test [1] and 2.44 nM in test [3]. Also, the binding result in test [2] is “binds”.

B2: monoclonal antibody 150 (antibody, V domains shown)
VH: QVQLQQPGAELVKPGASVKLSCKASGYTFTSYWMHWVKQRPGQGLEWIGEINPSNGRKNYNEKFKSKATLTVDKSSSTAYMQLSSLTSEDSAVYYCVRGDYGSSYYWYFDVWGAGTTVTVSS
VL: not shown
notes: also called mAb 150
For the molecule B2, the Kd in test [1] stood at 2770 nM; in test [3], 3.87 nM. Moreover, in test [2], the binding result is recorded as “binds”.
